Legend:
[1] = target: T1, yeast surface displayed hDBP3 (Homo sapiens, UniProt P02774); experiment: Inhibition assay of free vitamin Ds on yeast surface displayed hDBP3; format: binding; conditions: for Ki: free vitamin D as inhibitor, yeast surface displayed hDBP3
T1 construct: made in house; host or cells: yeast (surface display, pYD vector)
T1 sequence (P02774 17-227): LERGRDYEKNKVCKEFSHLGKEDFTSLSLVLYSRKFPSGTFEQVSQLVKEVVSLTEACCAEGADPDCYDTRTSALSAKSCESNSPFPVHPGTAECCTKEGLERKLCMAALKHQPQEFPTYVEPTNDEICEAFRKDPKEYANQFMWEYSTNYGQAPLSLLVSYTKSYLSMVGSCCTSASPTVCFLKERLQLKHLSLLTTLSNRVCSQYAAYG
Protocol: Binding affinity of the hDBP3 truncate to vitamin D2, vitamin D3, 25-hydroxy vitamin D2, and 25-hydroxy vitamin D3 was determined.

[2] = target: T2, hDBP4-hFc 3-6 protein coated on microparticles (Homo sapiens, UniProt P02774, S92A/S95A); experiment: Effect of displacement agent on microparticle DBP assay on the Abbott ARCHITECT instrument; format: binding; conditions: ANSA-present versus ANSA-free; FIG. 16
T2 construct: made in house
Protocol: For this study hDBP4-hFc 3-6 protein was coated on microparticles and binding was assessed on the Abbott ARCHITECT instrument to study the effect of adding a non-competitive displacement agent comprising 8-anilino-1-napthalenesulfonic acid ammonium salt (ANSA). ANSA separates any vitamin D metabolite in the sample from vitamin D binding protein to which the vitamin D metabolite is bound, was investigated. Microparticle diluent was used to remove ANSA in one condition (ANSA-free) but not the other (ANSA-present).

[3] = Storage stability of the protein by SDS-PAGE; format: physicochemical; conditions: protein expressed from HEK293 cells; room temperature, 2-8° C. and 37° C.; day 0, 3, 5, 7
Protocol: The hDBP4-hFc 3-6 protein expressed from HEK293 cells was tested for stability. hDBP4-hFc 3-6 protein (about 100 μl of 0.5 mg/ml) was stored at room temperature, 2-8° C., and 37° C. A sample of about 20 μl of hDBP4-hFc 3-6 was taken at day 0, 3, 5, and 7, mixed with 20 μl reduced 2× Laemmli sample buffer, and stored at 2-8° C. until SDS-PAGE gel analysis.

[4] = Reactivity of hDBP-hFc fusion proteins to 25-hydroxy vitamin D3-3-biotin (ELISA); format: binding; conditions: fusion protein produced as a dimer by HEK 293F transient transfection
Description: The hDBP3 open reading frame (ORF) was amplified by PCR and linked to hFc, which contained a short hinge region with the first six amino acids deleted (to increase secretion), through SOEing (splicing by overlapping extension) PCR. The fusion protein ORF was cloned in pBOS vector (acquired from Abbott Bioresearch Center, Worcester, Mass.) through Nru I/Not I restriction digestion. Secretion of the fusion protein was directed by IgG heavy chain secretion signal peptide. The fusion protein was produced as a dimer by human embryonic kidney (HEK) 293F transient transfection. However, its reactivity to 25-hydroxy vitamin D3-3-biotin was weak.
The hDBP4 ORF was amplified from the pYD vector and linked to hFc through SOEing PCR. The fusion protein ORF was cloned in pBOS vector through Nru I/Not I restriction digestion. Secretion of the fusion protein was directed by IgG heavy chain secretion signal peptide. The fusion protein was produced as a dimer by HEK 293F transient transfection. Its reactivity to 25-hydroxy vitamin D3-3-biotin was confirmed by ELISA.
The hDBP3 mutant 3-6 was amplified from a pYD vector. The hFc with 56 amino acids from hDBP4 on its N-terminus was amplified from pBOS hDBP4-hFc. The two fragments were linked together through SOEing PCR. The resulting DNA vector was named pBOS hDBP4-hFc 3-6, which contained the two point mutations (S76A, S79A). […]

[5] = Ligand titration of yeast surface displayed hDBP truncates; format: binding, human; conditions: for Binding to the ligand 25-hydroxy vitamin D3-3-biotin, in words: compared to full-length hDBP; for EC50: yeast surface displayed hDBP GC1S constructs, ligand 25-OH vitamin D3-3-biotin, read-out: Ag50 (antigen concentration at 50% of maximal binding signal)
Protocol: A total of five hDBP truncates and the full-length hDBP (Table I) were cloned into pYD yeast display vector (Invitrogen) by polymerase chain reaction (PCR) and Nco I/Xho I restriction digestion.
Binding affinity to 25-hydroxy vitamin D3-3-biotin of each construct was measured by ligand titration (Table II). The Ag50 is the value (antigen concentration) generated at 50% of maximal binding signal, thus translating into the highest affinity. This testing was performed similar to that detailed in Friguet et al., J. Immunolog. Methods, 77:305-319 (1985).

G-actin = conditions: read-out: Binding affinity for G-actin; cited from earlier work
[6] = Screen of the yeast-displayed hDBP3 mutation library (MACS/FACS, equilibrium competition staining); format: binding, human; conditions: relative to yeast surface-displayed hDBP3
Description: The library was screened by one round of Magnetic Activated Cell Sorting (MACS) and two rounds of Fluorescence Activated Cell Sorting (FACS) with equilibrium competition staining. […] Mutant 3-6 contained two point mutations (S76A, S79A). Plasmid DNA of this clone was isolated.

T2 sequence (P02774 with tags, fused parts or gaps S92A/S95A): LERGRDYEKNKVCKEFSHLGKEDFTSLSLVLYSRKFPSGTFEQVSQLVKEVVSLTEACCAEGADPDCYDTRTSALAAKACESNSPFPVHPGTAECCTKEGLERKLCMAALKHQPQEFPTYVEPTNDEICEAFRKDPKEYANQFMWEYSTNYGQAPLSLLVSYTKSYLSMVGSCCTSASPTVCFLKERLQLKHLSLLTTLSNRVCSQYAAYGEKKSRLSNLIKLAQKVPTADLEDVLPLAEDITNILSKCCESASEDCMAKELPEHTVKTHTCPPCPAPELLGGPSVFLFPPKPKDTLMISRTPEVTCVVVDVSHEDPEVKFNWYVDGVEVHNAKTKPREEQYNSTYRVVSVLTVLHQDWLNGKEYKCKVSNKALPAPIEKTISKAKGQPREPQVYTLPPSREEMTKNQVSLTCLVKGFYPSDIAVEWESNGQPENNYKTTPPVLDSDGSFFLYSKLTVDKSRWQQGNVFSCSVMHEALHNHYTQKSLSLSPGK

C=C1CC[C@H](O)C/C1=C/C=C1\CCC[C@]2(C)[C@@H]([C@H](C)/C=C/[C@H](C)C(C)(C)O)CC[C@@H]12 [25-hydroxy Vitamin D2]
Ki [1]: 6.4 nM

C=C1CC[C@H](O)C/C1=C/C=C1\CCC[C@]2(C)[C@@H]([C@H](C)CCCC(C)(C)O)CC[C@@H]12 [25-hydroxy Vitamin D3]
Ki [1]: 3.8 nM

N.O=S(=O)(O)c1cccc2cccc(Nc3ccccc3)c12 [ANSA, 8-anilino-1-napthalenesulfonic acid ammonium salt]
Effect on binding of vitamin D and tracer to DBP on the solid phase [2]: disturbed the binding of vitamin D from the sample and tracer to the DBP on the solid phase

C=C1CC[C@H](O)C/C1=C/C=C1\CCC[C@]2(C)[C@@H]([C@H](C)/C=C/[C@H](C)C(C)C)CC[C@@H]12 [Vitamin D2]
Ki [1]: 1390 nM

C=C1CC[C@H](O)C/C1=C/C=C1\CCC[C@]2(C)[C@@H]([C@H](C)CCCC(C)C)CC[C@@H]12 [Vitamin D3]
Ki [1]: 2970 nM

hDBP4-hFc 3-6: hDBP3 mutant 3-6 (S76A, S79A) plus 56 amino acids of hDBP4 fused to hFc, SEQ ID NO:10; dimer
Degradation on storage (SDS-PAGE 4-20%) [3]: no degradation
Reactivity to 25-hydroxy vitamin D3-3-biotin [4]: higher than wild-type fusion protein

B1: hDBP4: hDBP truncate: domain I plus about half of domain II, 56 amino acids longer than hDBP3, SEQ ID NO:14 (protein, listed as Homo sapiens)
chain: LERGRDYEKNKVCKEFSHLGKEDFTSLSLVLYSRKFPSGTFEQVSQLVKEVVSLTEACCAEGADPDCYDTRTSALSAKSCESNSPFPVHPGTAECCTKEGLERKLCMAALKHQPQEFPTYVEPTNDEICEAFRKDPKEYANQFMWEYSTNYGQAPLSLLVSYTKSYLSMVGSCCTSASPTVCFLKERLQLKHLSLLTTLSNRVCSQYAAYGEKKSRLSNLIKLAQKVPTADLEDVLPLAEDITNILSKCCESASEDCMAKELPEHTV
Binding to the ligand 25-hydroxy vitamin D3-3-biotin, in words [5]: retains binding affinity
EC50 [5]: 95 nM

B2: DBP: Naturally occurring triple-domain, monomeric serum glycoprotein that binds and transports vitamin D (protein, UniProt P02774 17-474, looked up)
Vitamin D-binding protein: LERGRDYEKNKVCKEFSHLGKEDFTSLSLVLYSRKFPSGTFEQVSQLVKEVVSLTEACCAEGADPDCYDTRTSALSAKSCESNSPFPVHPGTAECCTKEGLERKLCMAALKHQPQEFPTYVEPTNDEICEAFRKDPKEYANQFMWEYSTNYGQAPLSLLVSYTKSYLSMVGSCCTSASPTVCFLKERLQLKHLSLLTTLSNRVCSQYAAYGEKKSRLSNLIKLAQKVPTADLEDVLPLAEDITNILSKCCESASEDCMAKELPEHTVKLCDNLSTKNSKFEDCCQEKTAMDVFVCTYFMPAAQLPELPDVELPTNKDVCDPGNTKVMDKYTFELSRRTHLPEVFLSKVLEPTLKSLGECCDVEDSTTCFNAKGPLLKKELSSFIDKGQELCADYSENTFTEYKKKLAERLKAKLPDATPTELAKLVNKHSDFASNCCSINSPPLYCDSEIDAELKNIL
Kd (G-actin): ~10 nM

B3: hDBP0 (Full-Length): Full-length human vitamin D binding protein, allele GC1S; domains I, II, III of 191, 187, 80 amino acids (protein, UniProt P02774 17-474, looked up)
Vitamin D-binding protein: LERGRDYEKNKVCKEFSHLGKEDFTSLSLVLYSRKFPSGTFEQVSQLVKEVVSLTEACCAEGADPDCYDTRTSALSAKSCESNSPFPVHPGTAECCTKEGLERKLCMAALKHQPQEFPTYVEPTNDEICEAFRKDPKEYANQFMWEYSTNYGQAPLSLLVSYTKSYLSMVGSCCTSASPTVCFLKERLQLKHLSLLTTLSNRVCSQYAAYGEKKSRLSNLIKLAQKVPTADLEDVLPLAEDITNILSKCCESASEDCMAKELPEHTVKLCDNLSTKNSKFEDCCQEKTAMDVFVCTYFMPAAQLPELPDVELPTNKDVCDPGNTKVMDKYTFELSRRTHLPEVFLSKVLEPTLKSLGECCDVEDSTTCFNAKGPLLKKELSSFIDKGQELCADYSENTFTEYKKKLAERLKAKLPDATPTELAKLVNKHSDFASNCCSINSPPLYCDSEIDAELKNIL
modifications: allele GC1S
notes: domains I, II, III of 191, 187, 80 amino acids
EC50 [5]: 65 nM

B4: hDBP3: hDBP truncate: domain I plus first α-helix of domain II (amino acids 1-211), SEQ ID NO:12 (protein, listed as Homo sapiens)
chain: LERGRDYEKNKVCKEFSHLGKEDFTSLSLVLYSRKFPSGTFEQVSQLVKEVVSLTEACCAEGADPDCYDTRTSALSAKSCESNSPFPVHPGTAECCTKEGLERKLCMAALKHQPQEFPTYVEPTNDEICEAFRKDPKEYANQFMWEYSTNYGQAPLSLLVSYTKSYLSMVGSCCTSASPTVCFLKERLQLKHLSLLTTLSNRVCSQYAAYG
Binding to the ligand 25-hydroxy vitamin D3-3-biotin, in words [5]: bound to the ligand with similar affinity to the full-length hDBP
EC50 [5]: 83 nM
Binding preference among vitamin D2, vitamin D3, 25-hydroxy vitamin D2 and 25-hydroxy vitamin D3 [1]: preferentially bound to hydroxylated vitamin D213

B5: 3-6: hDBP3 clone with two point mutations (S76A, S79A), SEQ ID NO:2 (protein, listed as Homo sapiens)
chain: LERGRDYEKNKVCKEFSHLGKEDFTSLSLVLYSRKFPSGTFEQVSQLVKEVVSLTEACCAEGADPDCYDTRTSALAAKACESNSPFPVHPGTAECCTKEGLERKLCMAALKHQPQEFPTYVEPTNDEICEAFRKDPKEYANQFMWEYSTNYGQAPLSLLVSYTKSYLSMVGSCCTSASPTVCFLKERLQLKHLSLLTTLSNRVCSQYAAYG
Increase in affinity to 25-hydroxy vitamin D3-3-biotin [6]: six-fold increase in affinity

Source: US8993248B2, “Truncated human vitamin D binding protein and mutation and fusion thereof and related materials and methods of use” (Abbott Laboratories, priority 2011, dated 2015)
